Measurements taken from the supplement of paper PMC9170038.

Tested on: MS2 coat protein
Experiment: apparent KD of MS2 coat protein; higher = weaker reporter binding
Settings: Eterna round: R107
Outline: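 Each design's apparent KD comes from the median of binding-curve fits to its normalised clusters. Those clusters carried RNA switches transcribed on-chip from Illumina sequencing clusters. SNAP-549-labelled MS2 coat protein was titrated onto them in twofold steps (0.7 or 1.5 nM to 3 µM; per step 0.8–1.5 h down to 10–20 min). Conditions were 100 mM Tris-HCl pH 7.5, 80 mM KCl, 4 mM MgCl2, without or with constant ligand.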

[1] = input ligand: theophylline 20 uM
[2] = input ligand: tryptophan 2.4 mM
[3] = input ligand: theophylline 2 mM

Sequence	apparent KD of MS2 coat protein (input ligand: arginine 13.2 mM) [nM]	apparent KD of MS2 coat protein [1] [nM]	apparent KD of MS2 coat protein [2] [nM]	apparent KD of MS2 coat protein [3] [nM]	apparent KD of MS2 coat protein (input ligand: none) [nM]
UUCAGUACAACAGAUACCAGACAGUACUCUAAAUUGCAACAUGAGGAUCACCCAUGUAUAGUCCCUUGGCAGCUGUAAUGGGUGA [Theo B SS s2]	150	159	70.8		
AACAUGAGGAUCACCCAUGUCCCAUGUGAACGAGGACCGGUACGGCCGCCACUCGACCGAGGCGGCACAUGAGGAUCACCCACAU [whbob_SS_trypto A_2s13]	137	278		370	
UGAUCCUGCAGGGAUACCAGCGCCGCUAGAUAACUAUGCACAUGAGGAUCACCCAUGUAACGCCCUUGGCAGCCCAACUAAAGGG [Same State Theophylline B GF21]	28.9	41	35.2	26.7	39.9
GCGUUCUCUGCGGCCGCCACUCAAGGAGCUACAUAGCUCCUAGACAUGAGGAUCACCCAUGUCGCGAGGACCGGGUAGAUCCUUA [Same State Typptophan B GF8]	116	288	120	360	159
UGGUACAUGGCGGCCGCCACUGGGUUGAAAACCUGAGGAUCACCCUGGUAAAACGCGAAAGCGACUAGGACCGGGUCAUGUACCU	167	891	70.5	787	573
UACCCAUAGGGAAGGAGCGCGCUAACAUGAGGAUCACCCAUGUAAAGGGUUUCUGGCUUAGCGCAGGUAGGUCGCCCUAUGGGUA [#10 Exclusion - Arginine B]	196	400	654	1050	238
GGUACAUGAGGAUCACCCAUGUGUCAUGAUACCAGACAUGAAAAUGUCCCUUGGCAGCAUGCCUGAUGGCCGCGUUUAGCGGCCG [Liskovec]	15.8	19.5	16.2	20.7	15.7
AGGAAUGUCACGGCCGCCACUGACGCUAAAAUGGGCUCGAGCCGACAUGAGGAUCACCCAUGUUCCAGGACCGGGUGAAUCCUGG [theeternabot_sameState_MS2_Trp_B_40]	102	154		299	
CCUAUGCAGUCGGCCGCCACUGAACAUGAGGAUCACCCAUGUAAUUAUAAAUAUGGUCCUAAAAUCAGGACCGGGACUGUAUAGG [Ex Tryptophan B 7]	122	144	237	296	64.2
GAACAUGAGGAUCACCCAUGUAAAACAGAUACCAGUGAUAUAAUACACCCUUGGCAGCUGUAGCUGAAUAAUAAUUCCCUCAAGC [#19 SameState-TheophyllineA]	17	21.8	16.9		
UUUUUCAUAGGUUAUAGUUAAGAAACUGAAGGAGCGUGGUAAUACACAGGUAGGUCGCAGAUUUUACAUGAGGAUCACCCAUGUU [JR_SSArginiA_Sub009]	27.8	31.9	36.4	21.5	34.9
CUACAUUUGUAGAAACCGGUCAACAAUAAUCGAGGACCGGUACGGCCGCCACUCGUAUAAUUUAAUACAUGAGGAUCACCCAUGU [Tryptophan A 1]	13.7	19.4		19.4	
AGAGCAUUGACGGCCGCCACUCAUGUCACAUGAGGAUCACCCAUGUGAUGGGUGAUAGCCCGGUUGAGGACCGGGUCAAUGCUCA [Omei Tryp SS B v1]	18.4	25.3		20.4	
GGGUACAUCACGGCCGCCACUCAUGUAAAUACAUGAGGAUCACCCAUGUCGAUGGAGACAUCGGAGAGGACCGGGUGAUGUACCG	187	394		620	
AACAUGAGGAUCACCCAUGUCUGAACUGAAGGAGCGCUAAAUAAGGCAGGUAGGUCGCGGAAUUUUGUGUGCAUAUGCAUAUGGG [9.I]	28.1	32.6	23.8	29.8	30.3
GUCCAAAGGUCGGCCGCCACUGUAGAGUGUGUUCUUUCACAUGAGGAUCACCCAUGUUGUUAUUAUAGGACCGGGAUUGUAGGAC [#21 Exclusion Tryptophan B]	17.2	31.1		23.4	
GGUGGGACUUGUGAUACCAGCCCAAUUCGAAUCGAAUUGCACAUGAGGAUCACCCAUGUCGGCCCUUGGCAGCAUGAGUAUUUAU [Ricerixe]	152	149	313		
UGCAUUAUACAUGGAUCACCCAUGUAGACACGAGGACCGGUACGGCCGCCACUCGGAAGAGGAAACAUGAGGAUCACCCAUGUGA [Try A SS t2]	42.7	89.7		105	
UAAUAAGUACCGGUCCUCAGAUCCUCAUGACGAGGACCGGUACGGCCGCCACUCGAAACAUGAGGAUCACCCAUGUAAUAAUAAU [|T'-M'-Trp-Ms2|_Design 1]	17.9	29.4	18.3	36.9	22.2

Sequence	apparent KD of MS2 coat protein (input ligand: arginine 13.2 mM) [nM]	apparent KD of MS2 coat protein [1] [nM]	apparent KD of MS2 coat protein [2] [nM]	apparent KD of MS2 coat protein [3] [nM]	apparent KD of MS2 coat protein (input ligand: none) [nM]
CGCGGACCACCUGAUACCAGCGCAGUCAUGCAUGAACCCAACAUGAGGAUCACCCAUGUACGCCCUUGGCAGCAGGGAAAAGUCG [theeternabot_exclusion_MS2_Theo_B_8]	76.4	223	163		
ACAUGAGGAUCACCCAUGUCUGCCACUGAUACCAGCGGAAGCCCACGCCCUUGGCAGCAGAACAUGAGGAUCACCCAUGUAGGCU [Same State Theophylline A GF28]	55.8	186	201		
UGUAUGUGAUCUGAUACCAGCCUCAUAGCUUGAGGAUCACCCAAGUGGAGCGGAAACGCUGGCCCUUGGCAGCAGAUCGCAUACU [TheoBS 1 #AlternativeMS2]	252	199	516	13.5	471
AAAAGAGGUGGAAGGAGCGGGAGACAUGAGGAUCACCCAUGUGAUAUGACAAGAGGAUCAGCCCAGGUAGGUCGCCAUGUCGAAA [pbbbmullin]	17.9	53.1	50	103	71.1
GGGUGGUAGGCGGCCGCCACUGAUUUUCAUUUAUAGAUGACAUGAGGAUCACCCAUGUUUAUGUGCAGGACCGGGCCUGUUGUGG [aaaS]	43.1	74.2	77.6	113	98.7
UAAACUACACAUGAGGAUCACCCAUGUGGCCGAGGACCGGUACGGCCGCCACUCGUGUGUUAAUAAAAGAACCGCAAAGUUCUGU [Ticerear]	49.8	401		452	
UUGCAUAUCUUGGAUACCAGCACAUGAGGAUCACCCAUGUCCGCGGGAUAGCUCCAGAUGUGCCCUUGGCAGCCACAUGCACUUG [Quinzama]	10.9	18.4	10.7		
ACAUGAGGAUCACCCAUGUAAAUAGCGGAAGGAGCGUGCAAAAGCACAGGUAGGUCGCCGAUAUAAUAAUUGGGUAAUAUAUUAU [#27 Exclusion - Arginine A]	17.7	24.6	26.9	26.2	39.1
GGUCUCUGGAGCGAUACCAGCUUGAUCGUACUAGCCAGGUACAUGAGGAUCACCCAUGUAAGCCCUUGGCAGCGCUCCAGAGACC [#1 Exclusion - Theophylline B Attempt #9 (HarryS)]	8.2	14.6	10.5	22.3	9.25
GGUAGCAGGACUGAUACCAGUCCAGCGAAUCAUACGACGCAACAUGAGGAUCACCCAUGUGACCCUUGGCAGCAGUCUGCUACCG [Same State Theophylline B GF 29]	28.9	23	25.7		
AGAUUCGACACGGCCGCCACUUUCAGUGGCUGGUGUCAUGGUGCACAUGAGGAUCACCCAUGUGGAAGGACCGGGUGUUGAGUCU [XTryp B #26]	12.3	21.8		17.2	
AGCCACUCGAGUGAUCCUCACGAGUGGCAACGAGGACCGGUACGGCCGCCACUCGAAUAACAUGAGGAUCACCCAUGUUUAUAAU [#01 Tryptophan A - Same State]	51.1	176		258	
CGCAAGCAACAUGAGGAUCACCCAUGUGAAGGAGCGCCGAAUAAGGCAGGUAGGUCGCACAUGAAUAAAUCAUGUAAAAGCUUGC [MAT - Exclusion Arginine A - Mod of Eli - D22]	33.7	52.9	58.3	160	62.7
AACAUGAGGAUCACCCAUGUCGGGCCGGUGCGAGGACCGGUACGGCCGCCACUCGAGACAUGAGGAUCACCCAUGUAGGGCGAGA [Exclusion Tryptophan A GF22]	44	70.7	115	80.7	79.7
GUCCACAUGAGGAUCACCCAUGUAAGUGGGCGAGGACCGGUACGGCCGCCACUCGACAUGUUGACGAAAAGUCAGCAUGAGGACA [#SwitchBubble 3 #GuTurnoff #Tail]	44.1	154	101	114	108
AACAUGAGGAUCACCCAUGUCUGAACUGAAGGAGCGCUAAAUAAGGCAGGUAGGUCGCGGAAUUUUAUAUAUAUAUAUAUAUAGG [9.D]	28.7	31.9	25	19.8	28
AGCGAUUUCGGAAGGAGCGGUACAUGAGGAUCACCCAUGUAUUCAAUCGUGAUCGGCGCGUGCCAGGUAGGUCGCCGAAGGCGUC [Veatat]	12.4	14.9	11.9	10.9	9.95
UAAAACAUGAGGAUCACCCAUGUAUUUGAUACCAGAGUGAUGAUCCUCCCUUGGCAGCAAAUAACGCAUUGAUUACAAUGCGAAA [Mat - Same State Theophlline A - Mod of Eli - D28]	34.8	121	36		
GAGGGUGAGCCUCUGGUCCGUUUGACGGAUACCAGCGAGAGGUCUCGCCCUUGGCAGCCGACGACAUGAGGAUCACCCAUGUUAA [#09 Exclusion-TheophyllineA]	17.3	21.4	15.7	19.2	17.1
